Laboratory results taken from PMC4411359.

Molecular target: YFP-tagged CREB-binding protein (UniProt Q92793)
Assay: MST

Sequence of UniProt Q92793 (Q92793 whole entry): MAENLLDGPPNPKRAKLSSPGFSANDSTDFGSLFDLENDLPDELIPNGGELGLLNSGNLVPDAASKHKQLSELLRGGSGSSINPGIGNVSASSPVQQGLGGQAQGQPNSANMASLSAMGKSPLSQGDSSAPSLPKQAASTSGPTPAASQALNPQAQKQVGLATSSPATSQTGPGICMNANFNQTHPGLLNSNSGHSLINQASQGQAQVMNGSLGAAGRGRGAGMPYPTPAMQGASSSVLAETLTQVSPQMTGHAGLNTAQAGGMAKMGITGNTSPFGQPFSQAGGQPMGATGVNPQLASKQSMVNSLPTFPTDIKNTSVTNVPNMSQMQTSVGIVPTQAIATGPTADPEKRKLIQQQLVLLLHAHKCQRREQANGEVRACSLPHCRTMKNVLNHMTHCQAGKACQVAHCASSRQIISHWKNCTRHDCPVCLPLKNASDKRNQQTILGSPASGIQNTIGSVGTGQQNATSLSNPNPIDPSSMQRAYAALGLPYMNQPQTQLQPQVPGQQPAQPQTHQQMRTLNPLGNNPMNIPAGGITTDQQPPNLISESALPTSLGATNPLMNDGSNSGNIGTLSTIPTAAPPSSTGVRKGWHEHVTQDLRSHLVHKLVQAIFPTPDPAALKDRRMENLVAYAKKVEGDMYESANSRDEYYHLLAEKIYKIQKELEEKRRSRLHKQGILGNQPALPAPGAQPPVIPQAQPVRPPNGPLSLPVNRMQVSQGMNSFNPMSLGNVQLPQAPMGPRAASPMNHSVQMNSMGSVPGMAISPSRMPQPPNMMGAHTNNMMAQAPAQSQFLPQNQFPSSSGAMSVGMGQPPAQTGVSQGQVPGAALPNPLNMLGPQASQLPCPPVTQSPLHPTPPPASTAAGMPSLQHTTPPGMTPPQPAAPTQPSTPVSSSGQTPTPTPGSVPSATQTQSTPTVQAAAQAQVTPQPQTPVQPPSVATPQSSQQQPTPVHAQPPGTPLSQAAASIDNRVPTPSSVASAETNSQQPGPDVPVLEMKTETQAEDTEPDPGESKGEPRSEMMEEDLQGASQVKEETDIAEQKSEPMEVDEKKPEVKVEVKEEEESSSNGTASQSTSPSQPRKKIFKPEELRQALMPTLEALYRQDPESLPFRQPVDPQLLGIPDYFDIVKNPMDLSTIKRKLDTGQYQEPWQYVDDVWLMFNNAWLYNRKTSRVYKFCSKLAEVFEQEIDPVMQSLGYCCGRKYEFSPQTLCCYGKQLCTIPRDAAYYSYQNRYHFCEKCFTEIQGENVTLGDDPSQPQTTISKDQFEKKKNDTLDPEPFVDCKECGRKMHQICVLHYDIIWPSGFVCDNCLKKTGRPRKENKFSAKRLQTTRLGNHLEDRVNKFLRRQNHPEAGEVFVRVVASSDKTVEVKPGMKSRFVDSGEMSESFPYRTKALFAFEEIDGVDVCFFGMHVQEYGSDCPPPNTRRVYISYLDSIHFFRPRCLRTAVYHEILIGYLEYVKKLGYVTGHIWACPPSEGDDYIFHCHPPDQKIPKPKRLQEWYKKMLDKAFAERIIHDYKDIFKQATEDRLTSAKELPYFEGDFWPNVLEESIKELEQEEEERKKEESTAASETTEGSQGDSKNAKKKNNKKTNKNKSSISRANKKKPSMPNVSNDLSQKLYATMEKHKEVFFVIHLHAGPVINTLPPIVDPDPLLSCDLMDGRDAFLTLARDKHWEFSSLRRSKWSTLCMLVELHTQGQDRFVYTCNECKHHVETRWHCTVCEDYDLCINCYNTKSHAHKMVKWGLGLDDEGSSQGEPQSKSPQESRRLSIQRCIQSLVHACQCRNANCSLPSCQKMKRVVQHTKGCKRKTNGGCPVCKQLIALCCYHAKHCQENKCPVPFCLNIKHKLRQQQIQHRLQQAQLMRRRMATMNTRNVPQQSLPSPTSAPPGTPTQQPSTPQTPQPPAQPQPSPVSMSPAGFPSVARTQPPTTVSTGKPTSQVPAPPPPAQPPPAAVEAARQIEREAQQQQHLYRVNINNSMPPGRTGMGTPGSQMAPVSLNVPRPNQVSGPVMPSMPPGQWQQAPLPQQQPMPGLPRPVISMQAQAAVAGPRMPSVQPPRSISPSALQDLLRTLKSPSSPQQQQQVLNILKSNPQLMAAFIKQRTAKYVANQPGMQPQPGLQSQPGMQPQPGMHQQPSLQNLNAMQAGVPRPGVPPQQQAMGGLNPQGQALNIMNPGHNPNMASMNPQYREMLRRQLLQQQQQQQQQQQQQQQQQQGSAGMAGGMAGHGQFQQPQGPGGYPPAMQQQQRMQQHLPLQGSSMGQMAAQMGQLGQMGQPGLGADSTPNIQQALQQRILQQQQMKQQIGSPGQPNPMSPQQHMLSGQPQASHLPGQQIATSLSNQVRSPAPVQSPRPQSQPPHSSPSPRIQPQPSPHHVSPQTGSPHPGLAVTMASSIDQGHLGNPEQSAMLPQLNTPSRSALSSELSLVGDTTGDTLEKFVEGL

Substance: HA-tagged human thymine DNA glycosylase P65A mutant (from UniProt Q13569 1-410) (enzyme)
- fold decrease of affinity against wild-type HA-TDG: > 3 fold
